Patent publication US20160333082A1 (US Dept. of Health and Human Services, published 2016)
Values belong to the binder of their own block, whether it stands above or below them.

B1: anti-C3d mouse/human chimeric antibody C8D3 (antibody, V domains shown)
VH: QAYLQQSGAELVRPGASVKMSCKASGYTFTSYYMHWVKQTPRQGLEWIGAIYPGNGDTSYNQKFKGKATLTVDKSSSTAYMQLSSLTSEDSAVYFCAKGFDYWGQGTTVTVSS
VL: DVVMTQTPLSLPVSLGDQASISCRSSQSLVYSNGNTYLHWYLQKPGQSPKLLIYKVSNRFSGVPDRFSGSGSGTDFTLKISRVEAEDLGVYFCSQSTHVPYTFGGGTKLEIKR
notes: also called chimeric C8D3; chimeric C8D3 mAb
B2: anti-C3d Fab of chimeric antibody C8D3 (Fab, V domains shown)
VH: B1 VH
VL: B1 VL
B3: murine anti-C3d hybridoma clone C6 (antibody, V domains shown)
VH: QAYLQQSGAELVRPGASVKMSCKASGYTFTSYYMHWVKQTPRQGLEWIGAIYPGNGDTSYNQKFKGKATLTVDKSSSTAYMQLSSLTSEDSAVYFCAKYGSGYWGQGTTVTVSS
VL: B1 VL
notes: Murine IgG1, kappa

Assays:
[1] = target: T1, human complement protein C3d (human, UniProt P01024 1002-1303); experiment: flow cytometry (MFI) on CLL cells taken 24 h after ofatumumab infusion (C3d-opsonised)
T1 construct: domain: C3d; The assay field of each row says which; also called C3d antigen; C3d protein

[2] = target: T1, human complement protein C3d; experiment: avidity; antibody titration on C3d-opsonised CLL patient cells, 'OFA 24 h' sample (FIG. 9); apparent KD (avidity) on C3d-opsonized CLL cells, OFA 24 h sample
[3] = target: T1, human complement protein C3d; experiment: surface plasmon resonance (Biacore 3000), C3d immobilised, Fab at 0.5, 2.5, 5, 25 and 50 nM
[4] = target: T1, human complement protein C3d; experiment: PEPperCHIP microarray of 15-aa C3d peptides
Excerpt: The epitopes on C3d were mapped using PEPperCHIP technology (PEPperPRINT GmbH, Heidelberg, Germany). In brief, 15 amino acid (aa) long peptides with 14 aa overlaps were synthesized based on the C3d aa sequence and immobilized in duplicate on microarray chips. […] The microarrays were read using the LI-COR Odyssey Imaging System and then analyzed using PepSlide® Analyzer software.

[5] = target: B1; experiment: competition: C8D3 binding to C3d antigen (MFI) with increasing amounts of peptide

Binder: B1
EC50 (read off the curve) [1]: ~40 nM
Kd [2]: 6.7 nM

Binder: B2
Kd [3]: 17 nM

Binder: B3
binding result [4]: binds

binding result [5]: binds
Binder: QYQKDAPDHQELNLDVSLQLPSR [epitope 3 derived peptide]
